This test addresses hen egg-white lysozyme (hen, UniProt P00698 19-147). The experiment in a line: method not stated.

For one molecule, Ka results are on record in patent WO1997049805A2 (dated 1997).

B1: cAb-Lys3 (VHH)
VHH: DVQLQASGGGSVQAGGSLRLSCAASGYTIGPYCMGWFRQAPGKEREGVAAINMGGGITYYADSVKGRFTISQDNAKNTVYLLMNSLEPEDTAIYYCAADSTIYASYYECGHGLSTGGYGYDSWGQGTQVTVSS
For B1, the Ka was determined as 2e+07 M⁻¹.
